Assay [1] concerns the target human XCR1 (human) (UniProt P46094). The experiment in a line: radioligand binding.
Assay [2] shares this target.
The target is the same in assay [3]. The source holds these as a separate data set.
Assay [4] shares this target. The experiment in a line: radioligand binding. The source holds these as a separate data set.

Read-outs that look alike come from different tables or passages of the source. A value given as a limit tells only on which side of the number the result lay.

For the molecule “XCL1 ΔVal^1 (from UniProt P47992 22-114) (ligand)”, the fold decrease in affinity against XCL1 CC3 with human XCR1 (human) [1] was above 100 fold.
On to “XCL1 +Gly^N-term (from UniProt P47992 22-114) (ligand)”, for which the calcium flux in XCR1-expressing HEK293 cells, EC50 with human XCR1 (human) [2] is above 268 nM. The molecule also had a fold decrease in affinity against XCL1 CC3 with human XCR1 (human) [1] above 100 fold.

B1: XCL1 CC3 (ligand)
chain: VGSEVSDKRTCVSLTTQRLPCSRIKTYTITEGSLRAVIFITKRGLKVCADPQATWVRDCVRSMDRKSNTRNNMIQTKPTGTQQSTNTAVTLTG
Usually EC50 stands for the concentration that produces a half-maximal response. Take B1: the ^3H-IP3 accumulation in COS-7 cells transfected with XCR1 and Gqi4myr, EC50 with human XCR1 (human) [3] amounted to 14.1 nM. In the assay with human XCR1 (human) [1], this molecule showed an EC50 of 1 nM.

B2: XCL1 CC3 V5A (ligand)
chain: VGSEASDKRTCVSLTTQRLPCSRIKTYTITEGSLRAVIFITKRGLKVCADPQATWVRDCVRSMDRKSNTRNNMIQTKPTGTQQSTNTAVTLTG
With B2, in the assay with human XCR1 (human) [1], the EC50 came out at 8 nM.

B3: XCL1 CC3 V1A (ligand)
chain: AGSEVSDKRTCVSLTTQRLPCSRIKTYTITEGSLRAVIFITKRGLKVCADPQATWVRDCVRSMDRKSNTRNNMIQTKPTGTQQSTNTAVTLTG
Consider B3, for which, in the assay with human XCR1 (human) [2], the calcium flux in XCR1-expressing HEK293 cells, EC50 is above 268 nM.

B4: XCL1 WT (ligand)
chain: VGSEVSDKRTCVSLTTQRLPVSRIKTYTITEGSLRAVIFITKRGLKVCADPQATWVRDVVRSMDRKSNTRNNMIQTKPTGTQQSTNTAVTLTG
Take B4: in the assay with human XCR1 (human) [3], the ^3H-IP3 accumulation in COS-7 cells transfected with XCR1 and Gqi4myr, EC50 came to 17.6 nM. In the assay with human XCR1 (human) [1], this molecule displayed an EC50 of 7.7 nM.

B5: XCL1 CC3 T10A (ligand)
chain: VGSEVSDKRACVSLTTQRLPCSRIKTYTITEGSLRAVIFITKRGLKVCADPQATWVRDCVRSMDRKSNTRNNMIQTKPTGTQQSTNTAVTLTG
As for B5, the half-maximal effective concentration (EC50) in the assay with human XCR1 (human) [4] is below 1 nM.

B6: XCL1 CC3 S6A (ligand)
chain: VGSEVADKRTCVSLTTQRLPCSRIKTYTITEGSLRAVIFITKRGLKVCADPQATWVRDCVRSMDRKSNTRNNMIQTKPTGTQQSTNTAVTLTG
In the assay with human XCR1 (human) [1], B6 registered an EC50 below 1 nM.

B7: XCL1 CC3 S3A (ligand)
chain: VGAEVSDKRTCVSLTTQRLPCSRIKTYTITEGSLRAVIFITKRGLKVCADPQATWVRDCVRSMDRKSNTRNNMIQTKPTGTQQSTNTAVTLTG
Turning to B7, the calcium flux in XCR1-expressing HEK293 cells, EC50 with human XCR1 (human) [2] was above 268 nM.

B8: XCL1 CC3 E4A (ligand)
chain: VGSAVSDKRTCVSLTTQRLPCSRIKTYTITEGSLRAVIFITKRGLKVCADPQATWVRDCVRSMDRKSNTRNNMIQTKPTGTQQSTNTAVTLTG
B8 showed a fold decrease in affinity against XCL1 CC3 with human XCR1 (human) [1] above 100 fold.

B9: XCL1 CC3 K8A (ligand)
chain: VGSEVSDARTCVSLTTQRLPCSRIKTYTITEGSLRAVIFITKRGLKVCADPQATWVRDCVRSMDRKSNTRNNMIQTKPTGTQQSTNTAVTLTG
For the molecule B9, the calcium flux in XCR1-expressing HEK293 cells, EC50 in the assay with human XCR1 (human) [2] was above 268 nM. Also, the EC50 was 5.2 nM with human XCR1 (human) [1] and below 1 nM with human XCR1 (human) [4].

B10: XCL1 CC3 R9A (ligand)
chain: VGSEVSDKATCVSLTTQRLPCSRIKTYTITEGSLRAVIFITKRGLKVCADPQATWVRDCVRSMDRKSNTRNNMIQTKPTGTQQSTNTAVTLTG
Turning to B10, in the assay with human XCR1 (human) [1], the EC50 was below 1 nM.

B11: XCL1 CC3 D7A (ligand)
chain: VGSEVSAKRTCVSLTTQRLPCSRIKTYTITEGSLRAVIFITKRGLKVCADPQATWVRDCVRSMDRKSNTRNNMIQTKPTGTQQSTNTAVTLTG
For B11, the calcium flux in XCR1-expressing HEK293 cells, EC50 with human XCR1 (human) [2] was above 268 nM. The same molecule came in with an EC50 with human XCR1 (human) [4] below 1 nM.

B12: XCL1 CC3 G2A (ligand)
chain: VASEVSDKRTCVSLTTQRLPCSRIKTYTITEGSLRAVIFITKRGLKVCADPQATWVRDCVRSMDRKSNTRNNMIQTKPTGTQQSTNTAVTLTG
Take B12: the calcium flux in XCR1-expressing HEK293 cells, EC50 with human XCR1 (human) [2] was above 268 nM. In the assay with human XCR1 (human) [1], this molecule registered a fold decrease in affinity against XCL1 CC3 above 100 fold.
